According to PMC12664392 (iScience, 2025):
Where a chain is given by its changes, count along the chain named. Each block holds one binder with its values, some of them ahead of it.

Legend:
[1] = target: HLA-A*0201/NY-ESO1(157-165)(9V) complex, refolded and biotinylated (human, p9C to valine (9V) (stands in the printed letters), biotin on the Avi tag); experiment: SPR; ProteOn; the methods tell an inverse set-up (MRGS-6His tagged DARPin captured by an immobilised RGS-His antibody on a GLC chip) and also HLA-A*0201/peptide targets on a neutravidin chip at different dilutions; HEPES buffer; conditions: both partners purified
CD3ε = CD3ε (UniProt P07766 23-207, SPR construct not described; extracellular domain taken by convention from the UniProt topology. In cell assays CD3ε is full mature chain in the TCR/CD3 complex); experiment: SPR; Listed KD-values were obtained by surface plasmon resonance; format, CD3ε construct and conditions not told
CD3ε, sequence (P07766 23-207): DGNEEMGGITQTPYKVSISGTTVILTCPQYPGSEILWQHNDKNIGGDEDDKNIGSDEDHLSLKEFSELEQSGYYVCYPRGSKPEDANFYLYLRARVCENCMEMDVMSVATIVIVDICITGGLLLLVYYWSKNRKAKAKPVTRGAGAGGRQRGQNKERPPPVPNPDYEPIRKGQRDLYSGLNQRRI

B2: CD3ε-specific DARPin version 1 (designed binder)
chain: DLGQKLLEAAWAGQDDEVRELLKAGADVNAKNSRGWTPLHTAAQTGHLEIFEVLLKAGADVNAKDDKGVTPLHLAAALGHLEIVEVLLKAGADVNAQDSWGTTPADLAAKYGHEDIAEVLQKAA
notes: four repeats (N-cap/ IR1/ IR2/ C-cap) joined in the printed order; also called CD3-v1; variant-1 (v1)
Kd (CD3ε): 35 ± 21 nM

B4: CD3ε-specific DARPin version 2 (designed binder)
chain: B2 chain with D65N, G68R, Q97R, E114Q
notes: four repeats (N-cap/ IR1/ IR2/ C-cap) joined in the printed order; also called CD3-v2; CD3v2
Kd (CD3ε): 14 ± 3 nM

Other lines, results leading:

Kd [1]: 1.23 nM
koff [1]: 0.00113 s⁻¹
kon [1]: 925000 M⁻¹ s⁻¹
B1: NY_1xCD3 (bispecific DARPin T cell engager: HLA-A*0201/NY-ESO1(157-165)-specific DARPin NY_1 linked to a CD3ε-specific DARPin) (designed binder)
chain: DLGKKLLQAARAGQLDEVRELLKAGADVNAKDLIGVTPLHLAAFSGHLEIVEVLLKASADVNAKDVSGRTPLHVAAKHGHLEIVEVLLKAGADVNAKDLIGFTPLHLAAQFGHLEIVEVLLKAGADVNAQDKSGKTPADLAARAGHQDIAEVLQKAAGSPTPTPTTPTPTPTTPTPTPTGSDLGQKLLEAAWAGQDDEVRELLKAGADVNAKNSRGWTPLHTAAQTGHLEIFEVLLKAGADVNAKNDKRVTPLHLAAALGHLEIVEVLLKAGADVNARDSWGTTPADLAAKYGHQDIAEVLQKAA

Kd (CD3ε): 6 nM
B3: CD3ε-specific DARPin version 3 (designed binder)
chain: B2 chain with D15L, E20I, D65T, D66N, G68R, Q97R, S99T, E114R
notes: four repeats (N-cap/ IR1/ IR2/ C-cap) joined in the printed order; also called CD3-v3; CD3v3
